In patent publication US20070066800A1, “Apo2l(trail) receptor binding peptides and uses thereof” (priority 2003, published 2007):

Each molecule was assayed on Apo-2L.0 and DR5 (assay: IC50). Details: not given.
Description: Table printed on a drawing sheet, FIG._4C
Title: Step 3: Truncation Scan
The patent's description of the figure: FIGS. 4A-4D provide illustrations of the protocols used to modify Apo-2L receptor binding peptides.
Where the first naming reader finds the target: passage: inhibit the interaction between Apo-2L.0 (amino acids 114 to 281 of SEQ ID NO: 1) and DR5 (SEQ ID NOs: 105 and 109)
With EVCMTSCEKLM [C1-11*] the IC50 was 2940 nM.
Work on EVCMTSCEKLMSALSL yielded an IC50 of 79 nM.
With EVCMTSCEKLMSAL [C1-14] the IC50 was 39 nM.
With EVCMTSCEKLMSA [C1-13] the IC50 was 49 nM.

What follows are molecules tested against Human DR5-ECD long form polypeptide (human) (assay: phage competition ELISA, cross-reactivity). Details: not given.
In the case of GRVCLTLCSKLR (phage-displayed) [LB954], the IC50 is reported as 23.5 nM.
GEVCLTLCSRLT (displayed on phage) [LB953] was tested, and the IC50 was 23.5 nM.
With GEVCLTECSRLT (phage-displayed) [LB960] the IC50 was 17.6 nM.
GEVCLTLCSKLR (displayed on phage) [LB952] was tested, and the IC50 was 424 nM.
GEVCLTECSKLT (phage-displayed) [LB963] was tested, and the IC50 was 11.8 nM.
With GEVCLTECSKLR (displayed on phage) [LB959] the IC50 was 23.5 nM.
GEVCLTLCSKLT (displayed on phage) [LB956] gave an IC50 of 35.3 nM.

Each molecule was assayed against T1, Hu DR5 ECD (SEQ ID NO: 105) (Homo sapiens, UniProt O14763, A67V/E190F/V191A) (assay: Phage competition Ic50 ELISA (phagemid binding assay), competitor DR5 ECD). Details: Positive clones, competitor DR5 ECD (Comp/DR5 EcD).
T1 construct: Human DR5-ECD long form polypeptide
Experimental: The Apo-2L receptor binding peptides disclosed herein were identified from the bacteriophage peptide library constructs shown in Tables I and II using the following phagemid binding assay.
1. Coat microtiter plate wells with 80 ul of 1 ug/ml Apo-2L receptor DR5 ECD (SEQ ID NO: 105) (in 50 mM sodium carbonate pH 9.6) at 4° C. overnight.
2. Remove coat and block with 200 ul PBS/0.1% BSA. Incubate 1 hour at room temperature.
3. Prepare competing receptor solutions (100 ul/sample).
Dispense SOul binding buffer to row H through B in a new non-sticky 96-well plate.
Dispense 75 ul competing receptor solution to row A.
Make 3-fold serial dilutions by transferring 25 ul solution along columns except for row H (use fresh tip set for each transfer).
4. Prepare appropriate subsaturating phage dilution (predetermined from phage dilution series).
Transfer 50 ul of phage diluent to each microtiter well of the non-sticky plate. Start at row H then G,F,E,D,C,B,A respectively.
Incubate at R.T. for 2 hours.
5. Shake block off plate which has been coated with DR5 ECD (SEQ ID NO: 105) and rinse 10 times with PBS+0.05% tween 20.
6. Transfer 80 ul the mixture of competing receptor and phage from the non-sticky plate to DR5 ECD coated plate and incubate 20 minutes at room temperature.
7. Make a 1:5000 dilution of HRP conjugate anti-M13 monoclonal Ab (Amersham Pharmacia Biotech) into binding buffer.
Rinse plate 10 times with PBS/tween20 (be thorough here to remove vast excess of non displaying phage).
Add 80 ul of Ab diluent to row H through A.
8. Mix TMB peroxidase substrate and peroxidase solution B at equal volume.
Rinse plate 10 times with PBS/tween20.
Add 80 ul of substrate to row H through A.
Incubate as required to develop and stop with 80 ul 2.5M H2SO4.
A number of bacteriophage clones expressing peptides of interest were generated using the above methods and then purified using limiting dilution. In order to further characterize specific clones of interest (e.g. to determine Ic 50 values), phage clones were grown and then purified using a polyethylene glycol based method as described in Sidhu et al., Methods Enzymol. 328, 333-363 (2000). Alternative methods for generating and purifying bacteriophages are also known in the art. See, e.g. Current Protocols In Molecular Biology, Volume 1, Units 1, 5 and 6, Frederick M. Ausubel et al. eds., 1995.
Phage clones identified using the above methods were grown and then purified using the following polyethylene glycol based method. Briefly, a bacterial culture infected with a phage clone of interest is grown under conditions favorable to phage growth and then centrifuged for 10 min at 2° C. and 16,000 g. The supernatant is then transferred to a fresh centrifuge tube and a 1/5 volume of PEG-NaCl (PEG 8000 (200 g/L), NaCl (146 g/L), autoclaved) is added. The mixture is then incubated for 5 minutes at room temperature. The mixture is then centrifuged as above and the supernatant decanted. The supernatant is then respun briefly and the remaining supernatant removed. The phage pellet is then resuspended in 1/20 volume of PBS (or other analogous buffer). Insoluble matter is then pelleted by centrifugation. The supernatant containing the purified phage is saved and used in assays such as Ic 50 and Ec 50 assays that are described in the following examples.
In the Tables provided herein, “Ic 50” refers to the measure of the concentration of peptide needed to inhibit 50% of Apo-2L (e.g. amino acids 114 to 281 of SEQ ID NO: 1) binding to an Apo-2L receptor molecule (e.g. DR4-IgG (SEQ ID NO: 108) or DR5 ECD (SEQ ID NO: 105) etc.). The peptides are classified such that class 1-class 4 represent a, b, c, and d respectively.
G1A (AEVCLTSCSRLR) [Peptide G1A] showed an IC50 of 9.8 nM.
Molecule “Hd5-10: first generation (G1) peptide lead, SEQ ID NO: 14 (NVDQECMTTCTRLRECQLLL)” has an IC50 of 78.4 nM.
E2A (GAVCLTSCSRLR) [Peptide E2A] gave an IC50 of 49 nM.
Work on “3H857-13 (VEAGEVCLTLCEKLM) [Peptide 3H857-13]” yielded an IC50 of 167 nM.
LB933 (GEVCLTTCSRIR) showed an IC50 of 23.8 nM.
In the case of LB932 (GEVCLSSCSRLR), the IC50 is reported as greater than 100 nM.
Work on “930-S8-4 (AVGEVCLTECSRLIQR) [Peptide 930-S8-4]” yielded an IC50 of 11.2 nM.
With LB940 (GEVCLTSCSRLK) the IC50 was greater than 100 nM.
Work on “871-31-S3 (ESRGEVCLTSCERLR) [Peptide 871-31-S3]” yielded an IC50 of 14.9 nM.
Work on “2Hd7-20 (CVAMTSCDKLRLCQLL) [Peptide 2Hd7-20]” yielded an IC50 of 29 nM.
For LB931 (GEVCMTSCSRLR), the IC50 was greater than 100 nM.
“2H9-15 (EVCMTSCDRLKQAFLL) [Peptide 2H9-15]” was tested, and the IC50 was 78.4 nM.
In the case of LB936 (GEVCLTSCERIR), the IC50 is reported as 9 nM.
“2Hd7-2 (CVAMTSCEKLRSCLLL) [Peptide 2Hd7-2]” was tested, and the IC50 was 19.6 nM.
With LB939 (GEVCLTSCSRVR) the IC50 was greater than 100 nM.
“2Hd7-3 (CVAMTTCDKLRECMAI) [Peptide 2Hd7-3]” was tested, and the IC50 was 49 nM.
LB882 (GEVCLTSCERLR) was tested, and the IC50 was 14.9 nM.
Molecule “3H858-2 (IRVGEVCMTTCEKLM) [Peptide 3H858-2]” has an IC50 of 66.7 nM.
“2Hd7-1 (CVAMTTCSKLRQCLSA) [Peptide 2Hd7-1]” was tested, and the IC50 was 4.9 nM.

What follows are molecules tested against Human DR5-ECD long form polypeptide (human) (assay: phage competition ELISA (Comp/DR5 ECD)). Details: not given.
In the case of GRVCLTLCSKLR (phage-displayed) [LB954], the IC50 is reported as 23.5 nM.
Molecule GEVCLTTCSRIR (phage-displayed) [LB933] has an IC50 of 23.8 nM.
RLPGEVCLTSCERLL (phage-displayed) [871-4-S3] was tested, and the IC50 was 149 nM.
GEVCLTLCSRLT (displayed on phage) [LB953] was tested, and the IC50 was 23.5 nM.
For GEVCLTECSRLT (phage-displayed) [LB960], the IC50 was 17.6 nM.
Molecule CVAMTSCDKLRLCQLL (phage-displayed) [2Hd7-20] has an IC50 of 29 nM.
With GEVCLTLCSKLR (displayed on phage) [LB952] the IC50 was 424 nM.
In the case of GEVCLTSCERIR (displayed on phage) [LB936], the IC50 is reported as 9 nM.
GEVCLTSCSALR (phage-displayed) [R10A] showed an IC50 of 9.8 nM.
Molecule EVCMTSCEKLMSAL (phage-displayed) [LB845] has an IC50 of 39.2 nM.
GEVCLTECSKLT (phage-displayed) [LB963] showed an IC50 of 11.8 nM.
For GEVCLTECSKLR (displayed on phage) [LB959], the IC50 was 23.5 nM.
For EVCMTSCEKLM (phage-displayed) [LB848], the IC50 was 29400 nM.
EVCMTSCEKLMS (displayed on phage) [LB847] showed an IC50 of 735 nM.
Work on CVAMTTCDKLRECMAI (phage-displayed) [2Hd7-3] yielded an IC50 of 49 nM.
Work on ESRGEVCLTSCERLR (phage-displayed) [871-31-S3] yielded an IC50 of 14.9 nM.
FEQGEVCMTLCEKLM (phage-displayed) [3H858-1] gave an IC50 of 83.3 nM.
Work on VEAGEVCLTLCEKLM (phage-displayed) [3H857-13] yielded an IC50 of 167 nM.
In the case of EVCMTSCEKLMSA (displayed on phage) [LB846], the IC50 is reported as 49 nM.
In the case of GEVCLTSCARLR (phage-displayed) [S9A], the IC50 is reported as 12.7 nM.
Work on GEVCLTSCERLR (phage-displayed) [LB882] yielded an IC50 of 14.9 nM.
With GEVCLTSCDRLR (phage-displayed) [LB937] the IC50 was 11.9 nM.
QEVCMTSCDKLMKANWMAAM (phage-displayed) [LB867] was tested, and the IC50 was 29.4 nM.
Molecule GEVCLTSCSRIR (displayed on phage) [LB938] has an IC50 of 11.9 nM.
Molecule EVCMTSCEKLMSALSL (phage-displayed) [2H9-13] has an IC50 of 79.1 nM.
For EVCMTSCDRLKQAFLL (phage-displayed) [2H9-15], the IC50 was 78.4 nM.
Molecule GEVCLTLCSRLR (phage-displayed) [LB934] has an IC50 of 3 nM.
Work on CVAMTTCSKLRQCLSA (phage-displayed) [2Hd7-1] yielded an IC50 of 4.9 nM.
CVAMTSCEKLRSCLLL (displayed on phage) [2Hd7-2] was tested, and the IC50 was 19.6 nM.
GEVCLTLCSKLT (displayed on phage) [LB956] gave an IC50 of 35.3 nM.
CVAMTTCEKLRLCQSL (phage-displayed) [2Hd7-7] gave an IC50 of 6.9 nM.
Molecule GEVCLTMCSRLR (displayed on phage) [LB935] has an IC50 of 4.5 nM.
GEACLTSCSRLR (phage-displayed) [V3A] was tested, and the IC50 was 9.8 nM.
